Data from article PMC12808100 (2025).
Like-named read-outs stand apart in the source and are kept apart here. *: point of attachment. Biotin = O=C1N[C@H]2[C@H](CS[C@H]2CCCCC(=O)*)N1; TTDS = Trioxatridecan-succinamic acid linker

Legend:
HA-POLE2 = HA-POLE2 (human, UniProt P56282 1-527); experiment: nHU, apparent Kd, f = 0.82
HA-MBP-POLE2 = HA-MBP-POLE2 (human, UniProt P56282 1-527); experiment: nHU in cell extract, apparent Kd, f = 0.37
[1] = biological target: His6-AviTag-MBP-TEV-POLE2 (human, UniProt P56282 1-527, biotin on the AviTag (BirA co-expressed, biotin in the medium)); experiment: nHU, apparent Kd
[2] = biological target: T1, catalytic subunit of DNA polymerase ε (POLE), endogenous (human (endogenous in Jurkat and in …, UniProt Q07864 1-2286)); experiment: nHU, apparent Kd
[3] = biological target: T1, catalytic subunit of DNA polymerase ε …; experiment: nHU, apparent Kd; remark: listed apart in the source

T1 sequence (Q07864 whole entry): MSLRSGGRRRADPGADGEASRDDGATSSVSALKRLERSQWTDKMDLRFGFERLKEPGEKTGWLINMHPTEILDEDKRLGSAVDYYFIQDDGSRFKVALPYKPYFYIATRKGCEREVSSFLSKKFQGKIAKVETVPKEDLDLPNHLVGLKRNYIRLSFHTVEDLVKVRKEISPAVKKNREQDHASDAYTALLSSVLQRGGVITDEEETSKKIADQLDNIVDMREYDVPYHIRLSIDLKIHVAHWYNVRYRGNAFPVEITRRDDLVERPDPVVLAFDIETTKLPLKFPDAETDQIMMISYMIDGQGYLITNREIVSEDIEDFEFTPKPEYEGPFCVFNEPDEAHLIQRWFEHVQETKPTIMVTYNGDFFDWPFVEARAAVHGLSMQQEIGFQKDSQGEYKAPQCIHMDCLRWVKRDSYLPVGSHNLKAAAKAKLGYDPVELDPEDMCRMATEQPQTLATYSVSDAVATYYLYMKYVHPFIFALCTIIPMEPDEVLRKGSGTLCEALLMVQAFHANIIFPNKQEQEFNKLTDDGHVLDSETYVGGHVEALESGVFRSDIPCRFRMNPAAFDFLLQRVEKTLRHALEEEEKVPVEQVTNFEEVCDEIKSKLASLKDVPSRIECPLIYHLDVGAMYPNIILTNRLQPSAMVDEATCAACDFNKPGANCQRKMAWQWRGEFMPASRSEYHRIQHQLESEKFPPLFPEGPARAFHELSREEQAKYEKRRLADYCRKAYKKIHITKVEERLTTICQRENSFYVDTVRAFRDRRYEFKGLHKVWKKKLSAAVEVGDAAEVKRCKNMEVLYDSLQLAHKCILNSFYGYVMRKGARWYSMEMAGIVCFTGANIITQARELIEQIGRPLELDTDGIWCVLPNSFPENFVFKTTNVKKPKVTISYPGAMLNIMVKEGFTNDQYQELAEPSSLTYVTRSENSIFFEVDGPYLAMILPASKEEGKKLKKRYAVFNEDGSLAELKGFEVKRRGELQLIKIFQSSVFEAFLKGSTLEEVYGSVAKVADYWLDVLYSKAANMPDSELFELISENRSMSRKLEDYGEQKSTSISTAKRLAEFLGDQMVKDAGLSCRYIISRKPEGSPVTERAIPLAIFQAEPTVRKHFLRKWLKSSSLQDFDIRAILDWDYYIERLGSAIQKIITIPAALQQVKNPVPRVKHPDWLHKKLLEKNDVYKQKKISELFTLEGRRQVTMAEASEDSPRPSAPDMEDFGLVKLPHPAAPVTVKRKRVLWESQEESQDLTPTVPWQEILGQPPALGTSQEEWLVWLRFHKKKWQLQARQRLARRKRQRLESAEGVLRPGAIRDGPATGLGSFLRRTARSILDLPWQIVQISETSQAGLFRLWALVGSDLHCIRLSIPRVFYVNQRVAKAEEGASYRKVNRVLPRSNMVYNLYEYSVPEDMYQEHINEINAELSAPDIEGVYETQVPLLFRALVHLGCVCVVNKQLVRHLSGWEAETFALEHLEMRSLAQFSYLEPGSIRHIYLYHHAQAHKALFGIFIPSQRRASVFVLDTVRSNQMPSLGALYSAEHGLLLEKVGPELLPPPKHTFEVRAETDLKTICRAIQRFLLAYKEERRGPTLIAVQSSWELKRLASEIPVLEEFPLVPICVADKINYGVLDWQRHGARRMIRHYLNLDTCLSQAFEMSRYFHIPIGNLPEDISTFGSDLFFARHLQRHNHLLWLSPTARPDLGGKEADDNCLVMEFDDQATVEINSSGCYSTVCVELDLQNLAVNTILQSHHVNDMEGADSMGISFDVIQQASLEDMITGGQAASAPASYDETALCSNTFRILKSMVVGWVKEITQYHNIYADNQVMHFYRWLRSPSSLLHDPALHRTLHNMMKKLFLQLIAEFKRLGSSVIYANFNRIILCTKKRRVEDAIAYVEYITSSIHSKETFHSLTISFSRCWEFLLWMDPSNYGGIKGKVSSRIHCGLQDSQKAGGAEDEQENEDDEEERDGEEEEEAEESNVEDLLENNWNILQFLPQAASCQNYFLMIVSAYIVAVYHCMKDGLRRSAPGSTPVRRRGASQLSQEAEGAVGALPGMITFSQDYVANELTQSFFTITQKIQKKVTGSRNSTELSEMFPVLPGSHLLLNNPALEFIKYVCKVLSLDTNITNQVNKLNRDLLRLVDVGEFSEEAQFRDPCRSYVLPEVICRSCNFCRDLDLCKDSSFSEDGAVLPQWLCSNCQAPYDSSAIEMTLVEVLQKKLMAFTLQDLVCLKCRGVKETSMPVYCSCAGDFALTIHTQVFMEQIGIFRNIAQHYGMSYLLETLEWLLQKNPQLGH
Chain of His6-AviTag-MBP-TEV-POLE2 (P56282 whole entry): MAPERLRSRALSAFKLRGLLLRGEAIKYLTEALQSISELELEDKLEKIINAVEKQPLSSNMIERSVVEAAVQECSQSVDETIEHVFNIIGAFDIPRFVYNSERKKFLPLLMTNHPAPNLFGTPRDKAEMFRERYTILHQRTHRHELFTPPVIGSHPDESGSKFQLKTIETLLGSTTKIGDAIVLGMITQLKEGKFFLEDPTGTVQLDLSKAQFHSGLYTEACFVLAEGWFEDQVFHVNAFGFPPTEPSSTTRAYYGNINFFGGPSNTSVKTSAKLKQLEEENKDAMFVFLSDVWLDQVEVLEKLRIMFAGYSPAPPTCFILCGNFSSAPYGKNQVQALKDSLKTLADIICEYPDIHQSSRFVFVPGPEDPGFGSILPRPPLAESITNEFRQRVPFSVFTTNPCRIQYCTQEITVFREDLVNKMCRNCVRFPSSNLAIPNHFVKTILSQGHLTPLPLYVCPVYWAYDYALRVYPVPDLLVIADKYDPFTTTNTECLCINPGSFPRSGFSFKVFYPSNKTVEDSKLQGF
Chain of HA-MBP-POLE2 (P56282 whole entry): as above
Chain of HA-POLE2 (P56282 whole entry): as above

{Biotin-TTDS}-GPAAARRNPFARLDNRPR-NH2 [NPF motif peptide of DONSON (residues 71-88)]
Kd (HA-POLE2): 0.52 µM | Kd (HA-MBP-POLE2): 1.3 µM

B1: HA-ERCC6L, full length, intact NPF motif (natural protein)
chain: MEASRRFPEAEALSPEQAAHYLRYVKEAKEATKNGDLEEAFKLFNLAKDIFPNEKVLSRIQKIQEALEELAEQGDDEFTDVCNSGLLLYRELHNQLFEHQKEGIAFLYSLYRDGRKGGILADDMGLGKTVQIIAFLSGMFDASLVNHVLLIMPTNLINTWVKEFIKWTPGMRVKTFHGPSKDERTRNLNRIQQRNGVIITTYQMLINNWQQLSSFRGQEFVWDYVILDEAHKIKTSSTKSAICARAIPASNRLLLTGTPIQNNLQELWSLFDFACQGSLLGTLKTFKMEYENPITRAREKDATPGEKALGFKISENLMAIIKPYFLRRTKEDVQKKKSSNPEARLNEKNPDVDAICEMPSLSRKNDLIIWIRLVPLQEEIYRKFVSLDHIKELLMETRSPLAELGVLKKLCDHPRLLSARACCLLNLGTFSAQDGNEGEDSPDVDHIDQVTDDTLMEESGKMIFLMDLLKRLRDEGHQTLVFSQSRQILNIIERLLKNRHFKTLRIDGTVTHLLEREKRINLFQQNKDYSVFLLTTQVGGVGLTLTAATRVVIFDPSWNPATDAQAVDRVYRIGQKENVVVYRLITCGTVEEKIYRRQVFKDSLIRQTTGEKKNPFRYFSKQELRELFTIEDLQNSVTQLQLQSLHAAQRKSDIKLDEHIAYLQSLGIAGISDHDLMYTCDLSVKEELDVVEESHYIQQRVQKAQFLVEFESQNKEFLMEQQRTRNEGAWLREPVFPSSTKKKCPKLNKPQPQPSPLLSTHHTQEEDISSKMASVVIDDLPKEGEKQDLSSIKVNVTTLQDGKGTGSADSIATLPKGFGSVEELCTNSSLGMEKSFATKNEAVQKETLQEGPKQEALQEDPLESFNYVLSKSTKADIGPNLDQLKDDEILRHCNPWPIISITNESQNAESNVSIIEIADDLSASHSALQDAQASEAKLEEEPSASSPQYACDFNLFLEDSADNRQNFSSQSLEHVEKENSLCGSAPNSRAGFVHSKTCLSWEFSEKDDEPEEVVVKAKIRSKARRIVSDGEDEDDSFKDTSSINPFNTSLFQFSSVKQFDASTPKNDISPPGRFFSSQIPSSVNKSMNSRRSLASRRSLINMVLDHVEDMEERLDDSSEAKGPEDYPEEGVEESSGEASKYTEEDPSGETLSSENKSSWLMTSKPSALAQETSLGAPEPLSGEQLVGSPQDKAAEATNDYETLVKRGKELKECGKIQEALNCLVKALDIKSADPEVMLLTLSLYKQLNNN
Kd [1]: 2.4 µM

B2: NPF motif peptide of POLA1 (residues 177-206) (peptide)
peptide: PVMILKKKRSIGASPNPFSVHTATAVPSGK
HELM: PEPTIDE1{[O=C1N[C@H]2[C@H](CS[C@H]2CCCCC(=O)[*:2])N1].[O=C(CCCCCN[*:1])[*:2]].P.V.M.I.L.K.K.K.R.S.I.G.A.S.P.N.P.F.S.V.H.T.A.T.A.V.P.S.G.K.[am]}$$$$V2.0
SMILES: CC[C@H](C)[C@H](NC(=O)[C@H](CO)NC(=O)[C@H](CCCNC(=N)N)NC(=O)[C@H](CCCCN)NC(=O)[C@H](CCCCN)NC(=O)[C@H](CCCCN)NC(=O)[C@H](CC(C)C)NC(=O)[C@@H](NC(=O)[C@H](CCSC)NC(=O)[C@@H](NC(=O)[C@@H]1CCCN1C(=O)CCCCCNC(=O)CCCC[C@@H]1SC[C@@H]2NC(=O)N[C@@H]21)C(C)C)[C@@H](C)CC)C(=O)NCC(=O)N[C@@H](C)C(=O)N[C@@H](CO)C(=O)N1CCC[C@H]1C(=O)N[C@@H](CC(N)=O)C(=O)N1CCC[C@H]1C(=O)N[C@@H](Cc1ccccc1)C(=O)N[C@@H](CO)C(=O)N[C@H](C(=O)N[C@@H](Cc1c[nH]cn1)C(=O)N[C@H](C(=O)N[C@@H](C)C(=O)N[C@H](C(=O)N[C@@H](C)C(=O)N[C@H](C(=O)N1CCC[C@H]1C(=O)N[C@@H](CO)C(=O)NCC(=O)N[C@@H](CCCCN)C(N)=O)C(C)C)[C@@H](C)O)[C@@H](C)O)C(C)C
Kd [2]: 2.5 µM

B3: NPF motif peptide of TTF2 (residues 116-143) (peptide)
peptide: HHSSNWLRNPFKVLDKNQEPALWKQLIK
HELM: PEPTIDE1{[O=C1N[C@H]2[C@H](CS[C@H]2CCCCC(=O)[*:2])N1].[O=C(CCCCCN[*:1])[*:2]].H.H.S.S.N.W.L.R.N.P.F.K.V.L.D.K.N.Q.E.P.A.L.W.K.Q.L.I.K.[am]}$$$$V2.0
SMILES: CC[C@H](C)[C@H](NC(=O)[C@H](CC(C)C)NC(=O)[C@H](CCC(N)=O)NC(=O)[C@H](CCCCN)NC(=O)[C@H](Cc1c[nH]c2ccccc12)NC(=O)[C@H](CC(C)C)NC(=O)[C@H](C)NC(=O)[C@@H]1CCCN1C(=O)[C@H](CCC(=O)O)NC(=O)[C@H](CCC(N)=O)NC(=O)[C@H](CC(N)=O)NC(=O)[C@H](CCCCN)NC(=O)[C@H](CC(=O)O)NC(=O)[C@H](CC(C)C)NC(=O)[C@@H](NC(=O)[C@H](CCCCN)NC(=O)[C@H](Cc1ccccc1)NC(=O)[C@@H]1CCCN1C(=O)[C@H](CC(N)=O)NC(=O)[C@H](CCCNC(=N)N)NC(=O)[C@H](CC(C)C)NC(=O)[C@H](Cc1c[nH]c2ccccc12)NC(=O)[C@H](CC(N)=O)NC(=O)[C@H](CO)NC(=O)[C@H](CO)NC(=O)[C@H](Cc1c[nH]cn1)NC(=O)[C@H](Cc1c[nH]cn1)NC(=O)CCCCCNC(=O)CCCC[C@@H]1SC[C@@H]2NC(=O)N[C@@H]21)C(C)C)C(=O)N[C@@H](CCCCN)C(N)=O
Kd [3]: 0.72 µM

B4: HA-TTF2, full length, intact NPF motifs (natural protein)
chain: MEEVRCPEHGTFCFLKTGVRDGPNKGKSFYVCRADTCSFVRATDIPVSHCLLHEDFVVELQGLLLPQDKKEYRLFFRCIRSKAEGKRWCGSIPWQDPDSKEHSVSNKSQHASETFHHSSNWLRNPFKVLDKNQEPALWKQLIKGEGEEKKADKKQREKGDQLFDQKKEQKPEMMEKDLSSGLVPKKKQSVVQEKKQEEGAEIQCEAETGGTHKRDFSEIKSQQCQGNELTRPSASSQEKSSGKSQDVQRESEPLREKVTQLLPQNVHSHNSISKPQKGGPLNKEYTNWEAKETKAKDGPSIQATQKSLPQGHFQERPETHSVPAPGGPAAQAAPAAPGLSLGEGREAATSSDDEEEDDVVFVSSKPGSPLLFDSTLDLETKENLQFPDRSVQRKVSPASGVSKKVEPSDPVARRVYLTTQLKQKKSTLASVNIQALPDKGQKLIKQIQELEEVLSGLTLSPEQGTNEKSNSQVPQQSHFTKTTTGPPHLVPPQPLPRRGTQPVGSLELKSACQVTAGGSSQCYRGHTNQDHVHAVWKITSEAIGQLHRSLESCPGETVVAEDPAGLKVPLLLHQKQALAWLLWRESQKPQGGILADDMGLGKTLTMIALILTQKNQEKKEEKEKSTALTWLSKDDSCDFTSHGTLIICPASLIHHWKNEVEKRVNSNKLRVYLYHGPNRDSRARVLSTYDIVITTYSLVAKEIPTNKQEAEIPGANLNVEGTSTPLLRIAWARIILDEAHNVKNPRVQTSIAVCKLQACARWAVTGTPIQNNLLDMYSLLKFLRCSPFDEFNLWRSQVDNGSKKGGERLSILTKSLLLRRTKDQLDSTGRPLVILPQRKFQLHHLKLSEDEETVYNVFFARSRSALQSYLKRHESRGNQSGRSPNNPFSRVALEFGSEEPRHSEAADSPRSSTVHILSQLLRLRQCCCHLSLLKSALDPMELKGEGLVLSLEEQLSALTLSELRDSEPSSTVSLNGTFFKMELFEGMRESTKISSLLAELEAIQRNSASQKSVIVSQWTNMLKVVALHLKKHGLTYATIDGSVNPKQRMDLVEAFNHSRGPQVMLISLLAGGVGLNLTGGNHLFLLDMHWNPSLEDQACDRIYRVGQQKDVVIHRFVCEGTVEEKILQLQEKKKDLAKQVLSGSGESVTKLTLADLRVLFGI
Kd [1]: 0.3 µM

B5: NPF motif peptide of WDHD1 (residues 906-924) (peptide)
peptide: SSQGRVNPFKVSASSKEPA
HELM: PEPTIDE1{[O=C1N[C@H]2[C@H](CS[C@H]2CCCCC(=O)[*:2])N1].[O=C(CCCCCN[*:1])[*:2]].S.S.Q.G.R.V.N.P.F.K.V.S.A.S.S.K.E.P.A.[am]}$$$$V2.0
SMILES: CC(C)[C@H](NC(=O)[C@H](CCCCN)NC(=O)[C@H](Cc1ccccc1)NC(=O)[C@@H]1CCCN1C(=O)[C@H](CC(N)=O)NC(=O)[C@@H](NC(=O)[C@H](CCCNC(=N)N)NC(=O)CNC(=O)[C@H](CCC(N)=O)NC(=O)[C@H](CO)NC(=O)[C@H](CO)NC(=O)CCCCCNC(=O)CCCC[C@@H]1SC[C@@H]2NC(=O)N[C@@H]21)C(C)C)C(=O)N[C@@H](CO)C(=O)N[C@@H](C)C(=O)N[C@@H](CO)C(=O)N[C@@H](CO)C(=O)N[C@@H](CCCCN)C(=O)N[C@@H](CCC(=O)O)C(=O)N1CCC[C@H]1C(=O)N[C@@H](C)C(N)=O
Kd [3]: 14 µM

B6: HA-WDHD1, full length, intact NPF motif (natural protein)
chain: MPATRKPMRYGHTEGHTEVCFDDSGSFIVTCGSDGDVRIWEDLDDDDPKFINVGEKAYSCALKSGKLVTAVSNNTIQVHTFPEGVPDGILTRFTTNANHVVFNGDGTKIAAGSSDFLVKIVDVMDSSQQKTFRGHDAPVLSLSFDPKDIFLASASCDGSVRVWQISDQTCAISWPLLQKCNDVINAKSICRLAWQPKSGKLLAIPVEKSVKLYRRESWSHQFDLSDNFISQTLNIVTWSPCGQYLAAGSINGLIIVWNVETKDCMERVKHEKGYAICGLAWHPTCGRISYTDAEGNLGLLENVCDPSGKTSSSKVSSRVEKDYNDLFDGDDMSNAGDFLNDNAVEIPSFSKGIINDDEDDEDLMMASGRPRQRSHILEDDENSVDISMLKTGSSLLKEEEEDGQEGSIHNLPLVTSQRPFYDGPMPTPRQKPFQSGSTPLHLTHRFMVWNSIGIIRCYNDEQDNAIDVEFHDTSIHHATHLSNTLNYTIADLSHEAILLACESTDELASKLHCLHFSSWDSSKEWIIDLPQNEDIEAICLGQGWAAAATSALLLRLFTIGGVQKEVFSLAGPVVSMAGHGEQLFIVYHRGTGFDGDQCLGVQLLELGKKKKQILHGDPLPLTRKSYLAWIGFSAEGTPCYVDSEGIVRMLNRGLGNTWTPICNTREHCKGKSDHYWVVGIHENPQQLRCIPCKGSRFPPTLPRPAVAILSFKLPYCQIATEKGQMEEQFWRSVIFHNHLDYLAKNGYEYEESTKNQATKEQQELLMKMLALSCKLEREFRCVELADLMTQNAVNLAIKYASRSRKLILAQKLSELAVEKAAELTATQVEEEEEEEDFRKKLNAGYSNTATEWSQPRFRNQVEEDAEDSGEADDEEKPEIHKPGQNSFSKSTNSSDVSAKSGAVTFSSQGRVNPFKVSASSKEPAMSMNSARSTNILDNMGKSSKKSTALSRTTNNEKSPIIKPLIPKPKPKQASAASYFQKRNSQTNKTEEVKEENLKNVLSETPAICPPQNTENQRPKTGFQMWLEENRSNILSDNPDFSDEADIIKEGMIRFRVLSTEERKVWANKAKGETASEGTEAKKRKRVVDESDETENQEEKAKENLNLSKKQKPLDFSTNQKLSAFAFKQE
Kd [1]: 0.07 µM
